B1: Ubiquitin carboxyl-terminal hydrolase 1 (Homo sapiens), O94782 (parent)
chain: MPGVIPSESNGLSRGSPSKKNRLSLKFFQKKETKRALDFTDSQENEEKASEYRASEIDQVVPAAQSSPINCEKRENLLPFVGLNNLGNTCYLNSILQVLYFCPGFKSGVKHLFNIISRKKEALKDEANQKDKGNCKEDSLASYELICSLQSLIISVEQLQASFLLNPEKYTDELATQPRRLLNTLRELNPMYEGYLQHDAQEVLQCILGNIQETCQLLKKEEVKNVAELPTKVEEIPHPKEEMNGINSIEMDSMRHSEDFKEKLPKGNGKRKSDTEFGNMKKKVKLSKEHQSLEENQRQTRSKRKATSDTLESPPKIIPKYISENESPRPSQKKSRVKINWLKSATKQPSILSKFCSLGKITTNQGVKGQSKENECDPEEDLGKCESDNTTNGCGLESPGNTVTPVNVNEVKPINKGEEQIGFELVEKLFQGQLVLRTRCLECESLTERREDFQDISVPVQEDELSKVEESSEISPEPKTEMKTLRWAISQFASVERIVGEDKYFCENCHHYTEAERSLLFDKMPEVITIHLKCFAASGLEFDCYGGGLSKINTPLLTPLKLSLEEWSTKPTNDSYGLFAVVMHSGITISSGHYTASVKVTDLNSLELDKGNFVVDQMCEIGKPEPLNEEEARGVVENYNDEEVSIRVGGNTQPSKVLNKKNVEAIGLLGGQKSKADYELYNKASNPDKVASTAFAENRNSETSDTTGTHESDRNKESSDQTGINISGFENKISYVVQSLKEYEGKWLLFDDSEVKVTEEKDFLNSLSPSTSPTSTPYLLFYKKL

Variants of: B1
Conditions: with WDR48, Q8TAF3-1
WDR48, Q8TAF3-1, sequence (Q8TAF3 whole entry): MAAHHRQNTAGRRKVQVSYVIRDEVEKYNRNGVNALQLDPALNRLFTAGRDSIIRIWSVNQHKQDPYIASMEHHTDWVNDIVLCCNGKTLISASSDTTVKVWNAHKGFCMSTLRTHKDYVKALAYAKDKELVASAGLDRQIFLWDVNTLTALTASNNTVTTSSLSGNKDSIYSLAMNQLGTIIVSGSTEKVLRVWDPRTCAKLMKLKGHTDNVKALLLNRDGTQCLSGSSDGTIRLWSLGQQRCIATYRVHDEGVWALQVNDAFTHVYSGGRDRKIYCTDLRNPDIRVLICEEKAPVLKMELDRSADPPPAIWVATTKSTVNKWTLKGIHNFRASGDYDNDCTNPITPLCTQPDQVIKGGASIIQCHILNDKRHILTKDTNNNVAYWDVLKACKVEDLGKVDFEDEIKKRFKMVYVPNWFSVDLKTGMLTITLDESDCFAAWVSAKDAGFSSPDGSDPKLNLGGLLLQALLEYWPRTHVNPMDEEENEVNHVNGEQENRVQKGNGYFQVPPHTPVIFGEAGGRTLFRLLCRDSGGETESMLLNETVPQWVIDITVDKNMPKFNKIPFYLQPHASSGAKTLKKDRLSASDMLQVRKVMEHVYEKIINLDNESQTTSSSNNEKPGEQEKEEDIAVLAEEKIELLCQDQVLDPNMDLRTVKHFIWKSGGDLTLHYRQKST

| Variant | effect of a mutation on the interaction |
| --- | --- |
| E444K | disrupting interaction strength |

Reference: IntAct's records for PubMed 26388029
